In patent US11957762B2, “Immune tolerant and non-immune tolerant elastin-like recombinant peptides and methods of use” (University of Utah Research Foundation, priority 2015, dated 2024):

B1: ST-NP: stable NP of the fusion iTEPB70-iTEPA56-pOVA (SEQ ID NO: 60) (protein)
chain: GGAGVPGGAGVPGGAGVPGGAGVPGGAGVPGGAGVPGGAGVPGGAGVPGGAGVPGGAGVPGGAGVPGGAGVPGGAGVPGGAGVPGGAGVPGGAGVPGGAGVPGGAGVPGGAGVPGGAGVPGGAGVPGGAGVPGGAGVPGGAGVPGGAGVPGGAGVPGGAGVPGGAGVPGGAGVPGGAGVPGGAGVPGGAGVPGGAGVPGGAGVPGGAGVPGGAGVPGGAGVPGGAGVPGGAGVPGGAGVPGGAGVPGGAGVPGGAGVPGGAGVPGGAGVPGGAGVPGGAGVPGGAGVPGGAGVPGGAGVPGGAGVPGGAGVPGGAGVPGGAGVPGGAGVPGGAGVPGGAGVPGGAGVPGGAGVPGGAGVPGGAGVPGGAGVPGGAGVPGGAGVPGGAGVPGGAGVPGGAGVPGGAGVPGGAGVPGGAGVPGGGVLPGVGGVLPGVGGVLPGVGGVLPGVGGVLPGVGGVLPGVGGVLPGVGGVLPGVGGVLPGVGGVLPGVGGVLPGVGGVLPGVGGVLPGVGGVLPGVGGVLPGVGGVLPGVGGVLPGVGGVLPGVGGVLPGVGGVLPGVGGVLPGVGGVLPGVGGVLPGVGGVLPGVGGVLPGVGGVLPGVGGVLPGVGGVLPGVGGGGGGGGGCGGGGGGGGCGGGGGGGGCGGGGGGGGCGESIINFEKLTESIINFEKLTGG
B2: RED-NP: reductive-environment dependable NP, disulfide stabilized fusion iTEPB70-iTEPA28-(G8C)4-pOVA (SEQ ID NO: 61) (protein)
chain: GGAGVPGGAGVPGGAGVPGGAGVPGGAGVPGGAGVPGGAGVPGGAGVPGGAGVPGGAGVPGGAGVPGGAGVPGGAGVPGGAGVPGGAGVPGGAGVPGGAGVPGGAGVPGGAGVPGGAGVPGGAGVPGGAGVPGGAGVPGGAGVPGGAGVPGGAGVPGGAGVPGGAGVPGGAGVPGGAGVPGGAGVPGGAGVPGGAGVPGGAGVPGGAGVPGGAGVPGGAGVPGGAGVPGGAGVPGGAGVPGGAGVPGGAGVPGGAGVPGGAGVPGGAGVPGGAGVPGGAGVPGGAGVPGGAGVPGGAGVPGGAGVPGGAGVPGGAGVPGGAGVPGGAGVPGGAGVPGGAGVPGGAGVPGGAGVPGGAGVPGGAGVPGGAGVPGGAGVPGGAGVPGGAGVPGGAGVPGGAGVPGGAGVPGGAGVPGGAGVPGGGVLPGVGGVLPGVGGVLPGVGGVLPGVGGVLPGVGGVLPGVGGVLPGVGGVLPGVGGVLPGVGGVLPGVGGVLPGVGGVLPGVGGVLPGVGGVLPGVGGVLPGVGGVLPGVGGVLPGVGGVLPGVGGVLPGVGGVLPGVGGVLPGVGGVLPGVGGVLPGVGGVLPGVGGVLPGVGGVLPGVGGVLPGVGGVLPGVGGCGCGCGCGESIINFEKLTESIINFEKLTGG
B3: G(GAGVPG)70G(GVLPGVG)28G(ESIINFEKLT)2GG (protein)
chain: GGAGVPGGAGVPGGAGVPGGAGVPGGAGVPGGAGVPGGAGVPGGAGVPGGAGVPGGAGVPGGAGVPGGAGVPGGAGVPGGAGVPGGAGVPGGAGVPGGAGVPGGAGVPGGAGVPGGAGVPGGAGVPGGAGVPGGAGVPGGAGVPGGAGVPGGAGVPGGAGVPGGAGVPGGAGVPGGAGVPGGAGVPGGAGVPGGAGVPGGAGVPGGAGVPGGAGVPGGAGVPGGAGVPGGAGVPGGAGVPGGAGVPGGAGVPGGAGVPGGAGVPGGAGVPGGAGVPGGAGVPGGAGVPGGAGVPGGAGVPGGAGVPGGAGVPGGAGVPGGAGVPGGAGVPGGAGVPGGAGVPGGAGVPGGAGVPGGAGVPGGAGVPGGAGVPGGAGVPGGAGVPGGAGVPGGAGVPGGAGVPGGAGVPGGAGVPGGAGVPGGESIINFEKLTESIINFEKLTGG

What was measured:
[1] = test system: C57BL/6 mice; assay: In vivo CTL response by ELISPOT IFN-γ assay; set-up: species or system mouse; conditions: for SIINFEKL-specific CTL response in vivo: immunized C57BL/6 mice, ELISPOT
Text: in vivo CTL response by ELISPOT IFN-γ assay. C57BL/6 mice were immunized subcutaneously with each immunogen (2 nmol […] equivalents per mouse) together with incomplete Freunds Adjuvants (IFA; Sigma, USA) at their left flanks. The immunization was repeated at their right flanks 1 week later. At 10 days after the second immunization, mice were sacrificed, and the spleens were harvested. The spleens of the sacrificed mice were teased into single-cell suspensions and filtered through nylon mesh […]. Red blood cells were lysed by Ammonium-Chloride-Potassium (ACK) lysing buffer. The washed and resuspended single cells were counted using Contess™ Automated Cell Counter (Invitrogen, USA). Splenocytes (8×10^6/mL) were incubated in RPMI-1640 medium supplemented with 10% heat inactivated fetal calf serum, 2 mM glutamine, 100 units/mL penicillin and 100 μg/mL streptomycin (Invitrogen, USA), in a 14 mL polypropylene tissue culture tube for 48 hours, with or without […] peptide (SEQ ID NO: 22) (2.5 μg/mL). The cells were then washed and recounted. 2×10^5 live cells in 100 μL medium were then loaded into wells of 96-well Filtration plates (Millipore, USA) coated with […] of capture anti-mouse IFN-γ mAb (Clone: R4-6A2, Biolegend, USA). Triplicates were set up for each condition. Cells were discarded after 24 hours of culture and the wells were incubated with […] of detectionbiotinylated, anti-mouse IFN-γ mAb overnight (Clone: XMG1.2-Biotin, Biolegend, USA). After the unbound antibodies were washed away from the wells, the bound antibodies were detected using horseradish peroxidase (HRP Avidin, Biolegend, USA) together with 3-amino-9-ethyl-carbazole (AEC) substrate (Sigma, USA). The membranes on the bottom of the wells were peeled off, and color spots on the membrane were scanned. The spots were automatically counted using ImageJ software.
Animal immunization. C57BL/6 mice were immunized by the subcutaneous injection of 2 nmol iTEP NP vaccines and incomplete Freunds Adjuvants (IFA; Sigma, USA) at their left flanks. Immunization was repeated at their right flanks after 1 week. On day 10 after the second immunization, mice were sacrificed, and the spleens were harvested.

[2] = Critical micelle concentration by pyrene assay; format: physicochemical; conditions: pyrene assay in PBS
Procedure: Measurement of critical micelle concentrations (CMCs) of iTEP-vaccine fusions by pyrene assay. The CMCs of iTEP-vaccine fusions (NPs) were measured through fluorescence spectra by using pyrene as a hydrophobic fluorescent probe as described previously with some adjustments (Ohyanagi et al., Jpn J Clin Oncol, 2011; 41(5); 718-22; Dreher et al., J Am Chem Soc, 2008; 130(2):687-94). Briefly, the fusions were serially 2×time diluted in PBS starting from 250 μM in 96-well black clear-bottom plates. The final volume for each dilution was 150 μL. Three μL of a stock solution of 30 μM pyrene in ethanol was added to each well and mixed well. Fluorescence of these samples were scanned using an Infinite M1000 PRO plate reader (Tecan Trading AG, Switzerland) with the setting: Ex: 334 nm with a slit of 10 nm, Em: ranging 360-400 nm with a slit of 2.5 nm. Four peaks were recorded for pyrene between 360-400 nm. The ratio of emission peak number 1 (I1; 370-373 nm) and emission peak number 3 (I3; 381-384 nm) of pyrene (I1/I3) was plotted as a function of iTEP concentration. The data points were fitted to a sigmoidal-dose response curve, and the CMC was defined as the inflection point of the curve.

[3] = Response of NPs to reductants (DLS after GSH or DTT); format: physicochemical; conditions: 16 hours, by number distribution
Procedure: The next set of experiments tested whether disulfide bonds inside the new NP were reducible and if the NP structure was dissolvable in a reductive environment like cytosol (glutathione, GSH 1-10 mM) (Smith et al., Toxicol Appl Pharmacol, 1996; 140(1):1-12; Wu et al., J Nutr, 2004; 134(3):489-92). The new NP and the ST-NP were treated using two concentrations of GSH, at 37° C. overnight and then analyzed particle structure changes of both NPs by DLS. These concentrations mimic GSH concentrations in either cytoplasm (GSH 1-10 mM) or the extracellular (GSH 1-10 μM) environment (Smith et al., Toxicol Appl Pharmacol, 1996; 140(1):1-12; Cantin et al., Appl Physiol (1985), 1987, 63(1):152-7; Jones et al., Clin Chim Acta, 1998; 275(2):175-84). Both NPs were stable at 10 μM of GSH. The new NP lost its particle structure after being treated with 1 mM of GSH (Table 4). […] In contrast, the ST-NP, as a control, maintained its particle structure regardless of its incubation with any concentration of GSH. Similar results emerged when dithiothreitol (DTT) was used as the reductant except that the new iTEP-NP was not stable in 10 μM of DTT (Table 4). […] The new NP was named the reductive-environment dependable NP or RED-NP.

Row | Molecule | SIINFEKL-specific CTL response in vivo [1] | CMC (critical micelle concentration) [2] | Hydrodynamic diameter (nm) ([3]; DTT 10 μM) | Hydrodynamic diameter (nm) ([3]; DTT 1000 μM) | Hydrodynamic diameter (nm) ([3]; GSH 10 μM) | Hydrodynamic diameter (nm) ([3]; GSH 1000 μM) | Hydrodynamic diameter (nm) ([3]; no reductant (0 μM)) | SIINFEKL-restricted activated splenocytes (INF-γ ELISPOT) ([1]; subcutaneous immunization twice, 2 nmol SIINFEKL equivalents per mouse with IFA)
1 | B1 | significantly weaker than the one elicited by the MS-NP | 23.94 µM | 52.56 ± 13.67 (NP) nm | 53.10 ± 13.56 (NP) nm | 52.23 ± 13.59 (NP) nm | 50 ± 13.62 (NP) nm | 54.82 ± 12.89 (NP) nm | –
2 | B2 | outperformed the MS-NP and induced stronger CTL responses | – | 8.75 ± 2.03 nm | 6.43 ± 2.01 nm | 37.98 ± 6.72 (NP) nm | 8.35 ± 1.04 nm | 47.11 ± 13.18 (NP) nm | –
3 | B3 | – | 120.6 µM | – | – | – | – | – | 105 spots per million seeded splenocytes
